Consider one substance from US6767890.

This test deals with Galanin receptor of rat ileum (rat). The experiment in a line: cell-based or functional assay.

Galanin (peptide) came in with an Agonism (contraction of rat ileum), galanin 0.1 µM of 100% and an Agonism, average of two preparations, galanin 0.1 µM of 100%.
